19 sequences from a protein production outcome set (Wang et al. 2014) can be followed below.

This series is described as follows: label from the status in PepcDB records.
As for “MLLSMLRFEWRYYLRQPSFYVVSFLLFLMSFLSVASNNIQIGSGGEVMKNSPFSISQTLLIMGLISMFAVVNFVGSTAIRNHQHLMEELVYSKPLSPFAYQFGRFLGSFMVVLAVFAFVPIGLMLGSFMPWVDASRFGPFALSHYVIPYLQLSVPSLLLISCLFYAMASRFRSLMALYLTAVAMLVLYTLTGEMASQPQYRTIAALLDPFALRTFAEVTRYWTISEKNHQLLELSGLVLQNRALWLVIAGVLLAMSGIFSQPTLTKKRDKKSSKVEKIPDLVPLTALAMATLPNGRLQFWTRVKFEVRQVLLTAPFVVLGALTVFNLVGPMFDDFGWYGTSNWPLTQDMVDNIAGATGLLMVIVLIYYSAEIVWRERSSGMGDIVDSVPVSNLSFWASKLVAVLIVMTLLYMLAMGTTIVFQLIKGQSNLEISQYLIRLGFYYLLPLLMTSVLAFFLQVLSPNKYAGMGLFVAYYLTTFVMANWGFGHSLYNFGQSPSVSYSDMNGYGWGLLSHSLYMIYWGAFSVMLFVLGYGLYHRGPQQSLKTRLGLLGYQLGHNGKVIIAAALVIFVGSGSYLFYQTKVVNHYLTQEETTDLQADYEKTFKQYQGMPILVTTRVNANVDIFPEQRKIAAKVMFEWQNKSDKPIEKMLVQFPEHTQAETVKINIPNTHLGEFDRRYRNAWLTFSTPVQPGQLVVGNIELVRESTGVAESGFDLSVVENGTFINNFELLPLFGYQDGYELMDRHERQKRGLAEKNRANKLEDSRFYQQNFFGVDGDFIQFEATISTSMDQIALAPGYLQKQWQQDDRQYFHYLMDSPMVNFYAIISGRYQVEKIEHHGVAVEVYYHADHSWNVTRMVESVKDSIDYYTAAFGPYQHKQMRIMEFPGYRSFAQSFANTVPYSERIGFITDLRNEDNIDPVYYVTAHEVAHQWWGHQVGAADVQGSAVISESLSQYSALMVLEHKYGDKMIRKFLKYELDRYLRGRSAESIKEQPLLRSENQQYIHYQKGSVVMMAIKDVLGEAKLNANLKAFLTRYQYRNDPFPTTLDLVSYLKQGTDEVQSRFIDESFNDITLYDLRLTNAVAKTLPDGKTQLELTIYASRKVATGKGEEAEQPLDMSIDIGAFSADPDKLKDEKQILLLEKHHLVSGENKLTITLAEKPSYVGVDPFVKLIDRDARDNIFKL”, the protein production entry is “failed”. Consider “MIPLSPDTLLAARLLAEGDLAGALRAAQAGLQAEPGNAPLWNLLGVCAARLGQAALAEQCWRQALSLDPATPDAHYNLGCLASERDDAAAADAHYRAELARDPDHCSSLGNLGNLLQDAGRLDEAETCFRRRLAIQPGAAAHYQLGRLLAERGRNGEAEAQLRACLDETPDDVEALQLLGRLLEERGEAGEAEAMLRRALESAPGHAAAGNNLGLLLMAQRRWDEAESPLRAAHAAQPGAALPNLASLLLATGRAAEAETLARQALAAEPGRADWLNLLGLALREQGRDEEAGLAWEQGLASVPDHRRLRQNLGYLQLARGDWAAGWAHHEARLESAVYPALPSPRWQGESLAGRRLLVLFEQGYGDAIQFSRYLNPLLEQGAARVVALCREPLSPLFSRQWPQVAWLAMGSGYPAAFPPHDCHVFSMSLPWALRDFEPRAETYLQADPALRQAWRARLPPGRNIGLVWRRPAPSTRSTIAVPCRGRRLCCRCWPIPAPTGFRCSRSRPMSNANGCSNMAWRSGVPNWGISPTARRCWRNWTAWWPWTPRWRTWRARWACLAGCCWPASMWTGAGDGMAKRRRGTTRFVCSAKGAARDGARRSPGCERRNAQRSRLPGCISRSRSDGCLMLRIRK”, for which the protein production result is on record as “failed”.

Regarding “SKDHTEFMVHLNNRIILRRWSIFKEFLHSEELKNTPASVEAELAVTAILEKLNQQIPPRPFQTHSSTTSAKQSTATIHNPQRTYCVGDQLNVLLVAKDYFGNRKEYGGDFLRARIFSPAMKAGTSGKVTDFNNGTYLVSFTLFWEGPVSLSILLMHPSEGVSALWRARNRGYGKIIFTGQFLNGTSPVLTECGLTLNTSAELCQYLDARDHEAFYCLKLPGVPCEALTHMTSKNSNISYLSLEEKLLFRRFNIGVEVVKNLSIVVSLCNNKTNKKKKKCQIGMETPSPGGYTLKGRWITAHCEQNEFRAIKDINNCLTRKLIYLMGDSTLRQWIYYLPKVVKTLKYFDRHGAGPFKTHILLDTERHIFVQWKKHSHPFVTNKLFSMKDDNYIPREIDQVAGDSGTAIVISFGQHFRPFPINVFIRRAINVKNAIERLFLRSPETKVIIKTENIREINEHVEIFSDFHGSIQNLIIRDIFRDLNVGIIDAWDMTVAYRSEDVHPPESVIESQIGMFLNYIC”, the protein production result is “failed”. On to “QPTIVLDTDYNIIAANTAYQRQFGVAGKPHVGAKCYRVSHQFAVPCDQAGEHCPMRKAHDSRVPERMLHIHHTPRGPEHVDVELRPIIGQDGTVVAYVERLSSVAVASVQPQQKG”, for which the protein production result is given as “failed”. Consider “MTVQSGELRPNLIALKTIVYREVHRFMRIWPQTLLPPAITMVLYFVIFGNLIGRQIGDMGSFTYMQYIVPGLIMMSVITNSYGNVVSSFFGAKFQHSIEELMVSPVSPHTILIGYTLGGVLRGLMVGFIVTMLSMFFTDLQVHHLGVTIVVVVLTATIFSLLGFINAVFARNFDDISIIPTFVLTPLTYLGGVFYSINLLPPFWQTVSLANPVLHMVNAFRYGILGVSDIKISIALAFMIVATFVLYFGCARLLVSGRGMRQ”, for which the protein production entry is “failed”. For “QKYQALLANNVENTAKEALHQLAYTGREYNNIQDQIETISDLLGHSQSLYDYLREPSKANLTILENMWSSVARNQKLYKQIRFLDTSGTEKVRIKYDFKTSIAGPSLILRDKSAREYFKYAQSLDNEQISAWGIELERDKGELVYPLSPSLRILMPISVNDVRQGYLVLNVDIEYLSSLLNYSPVRDFHIELVKHKGFYIASPDESRLYGDIIPERSQFNFSNMYPDIWPRVVSEQAGYSYSGEHLIAFSSIKFVSNEPLHLIIDLSNEQLSKRATRDINDLIQES”, the protein production result was “not failed”. The entry for “MTISIDRPAPVSSWRTYRRLLAFAKPYRLLLVAALIAALIEAAGTTGFLALMKPITDETFIYKNAEVSRWLPVQIILLFVVRGVAGYITDMAMGKSARSIARDLRIKVMAKYLRLPGSRFDSEPVPSMLIRLGSDSDQVAQAAVDAVKVMIQQSLQVIGALALMLWHSWQVTLTILVLAPVLAWVMDKVARRYRRISHSIQESGAQLLQAADQTLSSHQEVKIYGAQQTEMERYGALANRNLRLAMKVESTRGISTATVQMIGAIGLSALLFVAGAQALAGRLTAGDFVVLMTSMLTIIPGLKQLTNVQNMVQRGLASAERLFSVLDSPDEPDQGTVPLTRAKGLIEFRDVTARYPGQVNPALADVSFVAQPGTVTAIVGRSGSGKSSLIKLIPRFYEAEAGQILLDGHPVQAYALADLRRQIALVGQQVMLFDGSIADNVAFGEMRNADAGKLERAILGANAMEFVAQLPEGLQSHVGTKGGRLSGGQRQRLAIARAMLKDAPVLILDEATAALDNESERLVQDALHKLMPDRTTLVIAHRLSTIEHADQVLVMDQGRIVERGTHHQLLAQGGLYSHLHGMQFRERQA” is “failed”; for “TNLAALSLDSLVAPDTPIQFDIISPVCEDQPGQAKAFGQGGRRTNPFGESGGSTKSETEDSILHQLFIVRFLGSMEVKSDDHPDVVYETMRQILAARAIHNIFRMTESHLLVTCDCLKLIDPQTQVTRLTFPLPCVVLYATHQENKRLFGFVLRTSSGRSESNLSSVCYIFESNNEGEKICDSVGLAKQIAL” it is “failed”. Then “MEIGIIGTGNIGGTLARKLIAAGHQVRVANSKGIHGVQSFADEIGATAVDVYGAVKGADAIILSIPLPALASLPNGFFDDLPETVPLIDTSNYYPGLRDPLIPEIDDGMTESVWVSQQLSHPVIKAFNNILAWSLAELGTPKGSASRLAIAVAGDNATLKQIVMNLVDDTGFDAIDAGSLEESWRQQPSTPAYCCDYDAETMKKGLTAAVRGEAASKRDRLPLEHHHHHH”, with “failed”; and “MTPELNLKSLGAKTPYIFEYNSQLLEAFPNPNPNLDPLITLECKEFTSLCPITSQPDFGVIFIRYIPKDKMVESKSLKLYLFSYRNHGSFHESCINTILLDLVRLLEPKYLEVYGDFASRGGIAIKPFVNYAIKEYQDFKEKRLLNAK”, with “failed”.

Turning to “MRNVLITGATSGIGLSLVEKYLQAGDKVYACGRNFQAYLKSSSLIDAEKSDKLVKIVFDMNHHDAIIDVLTEVESLDIAILNAGTCEYIDDAMGFDAELFERVINTNVISIGYCLQALLPKMKQKGHLALMGSSAAFVPFQRAEAYGASKAAIHYLAQSLQLDIPKERLTISVIAPGFVKTPLTDKNDFPMPMLIEPDKAADHIINGINNNKQHIHFPFPFTRFLILMGALPSCIWQWMALRMKRK”, the protein production result is given as “failed”. Regarding “MTSPFHRLCRTTLAAGFLFGMASAALAVGDSNDDTNPPPKTETTKTCTGGKVWDKQRKECVTPKKNSFNDDDLYKFAREFAYAGQYENAITVLNLARNQNDPRILNYLGYANRKAGRMELGMSYYRKALQADENYILARSYMGMALVEQGDIQGARVQLVEIRDRGGEDTWAYRALLQSLNGYRTY”, the protein production entry is “failed”. Then “MRLTDQKRESIVQAAIAEFGDRGFEITSMDRIAARAEVSKRTVYNHFPSKEELFAEMLQRLWNCAPPQSEVVYRPLVSLREQLLELLWGKMRNLTDSSFLDLARVVVGATIHSPERAQVWLARINEREETFSAWIRAAQKDGRLKPVDPGFAATQMHALLKSFAFWPQVTFNAALLTPQEQSNVVESALNMFLGWYEIPG”, with “not failed”.

Consider “MSLIENLWRGICIISASEDAFSAGETIKEKLKSFEIPVVHYRYKDAEIETIWKCYDAIVFVMALEGATRIVCKYAKSKTEDPAIVCIDDKINYVIPLLGGHWGANDIARELSVILNSTPIITTAAEIKGKLSIERIANILIAKIINPENIVKINAALLRDESICIDGIDVNVNFPENIKVNSEECSYIISLRGDKEYKDKIVVWLKPLKISIGIGSKKDVKMEEIRDGIYKVLERLNLKRERIGIIASIREEVKKIADEFNVRFRLVNEEEINNFMNPCLTPPSKTLIEVGLKGVAEISALIAGGRNSKLILRKIAISRNSTIAVATYEGHHHHHH”, for which the protein production entry is listed as “not failed”.

Regarding “MTQVYKAKFGTPNRGWVIIVHGLGEHSGRYSKLVSMLVNEGYAVYTFDWPGHGKSPGKRGHTSVEEAMEIIDFIIEEINDKPFLFGHSLGGLTVIRYAETRPEKIRGVIASSPALAKSPKTPSFMVALAKILGVLLPSLTLSNGIDPNLLSRNPDAVKRYIEDPLVHDRISAKLGRSIFKNMDLAHREAHKIKVPVLLLVGTGDVITPPEGARKLYGEIKVEDKEIVEFEGAYHEIFEDPEWGEEFHKKIVEWIKKH”, the protein production entry was “failed”.

For “DGIVELKTVPFDQLVVYEQKLFPAERERFLRLWIKQPNSAAYAVVRDGQIVGYGVIRQSHTGLRIGPLNADNEQIAEQLLLALLAFRSDALVFLDVPDANLEAIKLVQRYGMKPVSEVARMYNKEIPNLLINRVFAVTSLEVG”, the protein production entry is reported as “failed”. The entry for “SSKELLMKLRRKTGYSFVNCKKALETCGGDLKQAEIWLHKEAQKEGWSKAA” is “not failed”. “MQNSIYKQFWKYTIPTVAAMLVNGLYQVVDGIFIGRYVGADGLAGINVAWPVIGSILGIGMMVGVGTGALTSIKQGEQDQQGAKRVLTTGLLFLLALMPIVATILFFFADDFIRWQGAQERVYELGLQYLQILIVACIFSLGSIAVPFLLRNDNSPNLATILMVIGAIINIVLDYVFIAWMNWELTGAAIATALAQMVVTVLGVGYFFSSKAKLRLTFRELKVQLDAIPKIVLIGTSSFFMYAYGSTMVALHNALFAQYGSPLLIGAYAILGYIVTVYYLVAEGIANGMQPLVSYNHGARNQDNIRKLLQIAMGTSVLGGVVFVVLMNLFPYQLVSVFNDADQQLIESAVMGIRLHMFALFMDGFLVVAGAYYQSVNKGSKAMFVTVGNMLIQLPFLFIMPKLLGVTGIWIAFPLSNIALSLVVMSMLWRDIKKLMVDSPVEPSIQAS”: the protein production entry is on record as “not failed”. Then “MVAARPAERSGDPAAVRVPVPSAWWVLIGGVIGLFASMTLTVEKVRILLDPIYVPSCNVNPIVSCGSVMTTPQASLLGFPNPLLGIAGFTVVVVTGVLAVAKVPLPRWYWIGLAVGILVGVAFVHWLIFQSLYRIGALCPYCMVVWAVIATLLVVVASIVFGPMRENRGSQERVGARLLYQWRWSLATLWFTTVFLLIMVRFWDYWSTLI”, with “failed”.
